In patent US20260077071A1, “Targeted Delivery of Theranostic Agents” (Peter MacCallum Cancer Institute, priority 2022, published 2026):
Square brackets hold non-standard residues; d marks the D form. Peptide text beside a SMILES is read from it. * marks the point of attachment. DOTA = O=C(O)CN1CCN(CC(=O)O)CCN(CC(=O)*)CCN(CC(=O)O)CC1; NMe1Nal = CN[C@@H](Cc1cccc2ccccc12)C(=O)O; 1Nal = N[C@@H](Cc1cccc2ccccc12)C(=O)O; NMeF = CN[C@@H](Cc1ccccc1)C(=O)O; NMeNle = CCCC[C@H](NC)C(=O)O; Sar = CNCC(=O)O

Tests used:
in vitro = in vitro ADME, mouse; conditions: for remaining at 1.5 h: mouse, pH 7.3
Protocol: Drug detoxification, drug metabolism and metabolic stability are important determinants of the efficacy of theranostic candidates in clinical settings. To assess metabolic stability, radiolabelled Compounds [^68Ga]Ga-1-4 and comparative example-2 ([^68Ga]Ga-Cmp ex-2) were challenged by incubation in either human serum, mouse liver or kidney homogenates and HEPES buffer as a negative control. Duplicate samples (750-900 pmol/mL) were incubated at 37° C. with pooled human serum, 15% mouse kidney homogenate, 30% mouse liver homogenate or 20 mM HEPES, pH 7.3 (control). Human blood was collected and serum prepared using SSTII advance vacutainer tubes according to the manufacturer's instructions (Becton Dickinson, New Jersey, USA). Mouse kidney and liver homogenates were prepared by washing the tissues in ice-cold HEPES buffer, pH 7.3 and placing them in pre-chilled tubes containing HEPES buffer and 2.38 mm metal beads (Mo-Bio Laboratories, Hilden, Germany). Tissues were homogenised using the PowerLyzer24 homogeniser (Qiagen, Hilden, Germany) according to the manufacturer's instructions. Ga-68 radiolabelled peptides were incubated with the various lysates at 37° C. and samples were collected at 15, 30, 60 and 90 min. Reactions were terminated by addition of an equal volume of acetonitrile and centrifugation for 2 min at 15,000 rpm. Supernatants were diluted in water before being analysed by HPLC using a Kinetex C18 XB column (5 μm 4.6×150 mm), eluted at 1.5 mL/min of gradient 20-60% MeCN in water containing 0.1% formic acid over 7 min.

[1] = LogD7.4 determination (PBS pH 7.4 / n-octanol); assay type: physicochemical; conditions: PBS/Octanol mix, n = 5
Protocol: The distribution coefficients (LogD7.4) of radiolabelled compounds [^68Ga]Ga-1-4, and [^68Ga]Ga-Cmp ex-2 were assayed by measuring radioactivity distribution in the aqueous phase (phosphate buffer pH7.4) and the organic phase (n-octanol). To determine the distribution coefficient (LogD), Ga-68 radiolabelled compounds were diluted to 20 pmol/mL in PBS (pH 7.4) and an equal volume of n-octanol was added. The mixture was vortexed vigorously for 10 cycles of 1 min at room temperature before being centrifuged for 6 min to separate the two phases. Equal volumes from each phase were aliquoted into individual counting tubes and analysed for 1 min using the Perkin Elmer 2480 Wizard2™ gamma counter (PerkinElmer, Massachusetts, USA). The distribution coefficient was calculated using the following equation [formula]

[2] = target: T1, human full-length CCK-2 receptor (Homo sapiens, UniProt P32239); assay: Competitive ligand binding against [^177Lu]Lu-DOTA-CP04 in A431-CCK-2R cells; conditions: ^natGa chelated DOTA-compounds based on Peptide C (Table 5); read-out: IC50
T1 construct: stably transfected to over-express the human full-length CCK-2 receptor (A431-CCK-2R); expressed in transfected cells
T1 sequence (P32239 1-447): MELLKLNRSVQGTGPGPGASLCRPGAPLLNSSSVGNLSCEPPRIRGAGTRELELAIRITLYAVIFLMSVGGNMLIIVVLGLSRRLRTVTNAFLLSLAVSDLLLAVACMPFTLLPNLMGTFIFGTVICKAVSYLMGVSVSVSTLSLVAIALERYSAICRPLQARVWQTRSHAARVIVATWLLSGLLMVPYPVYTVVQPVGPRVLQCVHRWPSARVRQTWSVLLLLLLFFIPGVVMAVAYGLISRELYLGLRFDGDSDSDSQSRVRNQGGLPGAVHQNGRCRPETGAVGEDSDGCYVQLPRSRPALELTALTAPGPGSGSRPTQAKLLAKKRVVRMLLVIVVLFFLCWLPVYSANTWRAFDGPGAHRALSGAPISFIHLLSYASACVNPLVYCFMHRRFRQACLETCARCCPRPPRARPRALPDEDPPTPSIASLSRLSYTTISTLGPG
Protocol: CCK-2 receptor binding experiments were conducted using A431 (human epidermoid carcinoma) cells stably transfected to over-express the human full-length CCK-2 receptor (A431-CCK-2R). As a negative control, A431 cells stably transfected with an empty vector were analysed simultaneously (A431-EV). A431 cells were maintained in DMEM (Gibco, Australia) media supplemented with 10% foetal calf serum and 250 μg/mL G418 as described previously (Aloj L, et al., J Nucl Med., 2004, Mar; 45(3), 485-94). The affinity of peptides for the CCK-2R was evaluated using competitive binding assays against [^177Lu]Lu-DOTA-CP04 in A431-CCK-2R cells. Briefly, 48 h before the experiment cells were plated at a density of 650,000 cells per well in 6 well plates. On the day of the experiment the peptides were diluted in DMEM supplemented with 1% foetal calf serum to at least 7 different concentrations (0-400 nM) and approximately 50,000 cpm of [^177Lu]Lu-DOTA-CP04 was added to each dilution. Cells were washed twice in ice-cold binding buffer (DMEM supplemented with 1% foetal calf serum) and resuspended in 1.5 mL of the pre-prepared compound mix before being incubated at 37° C. for 1 h. Post-incubation the media was removed and kept for analysis (unbound fraction) and the cells were washed twice in ice-cold binding buffer, which was pooled with the unbound fraction. Finally, 1 M NaOH was added to the cells and allowed to incubate for 5 min before lysates were collected (bound fraction). A small volume of lysate was kept aside to determine protein concentration using the Pierce® BCA protein assay kit (Thermo Fisher, Australia). All samples were analysed using the Perkin Elmer 2480 Wizard2™ gamma counter (PerkinElmer, Massachusetts, USA) and were normalised according to protein concentration. Half-maximal inhibitory concentrations (IC50) were determined using nonlinear regression calculated using GraphPad Prism Software (GraphPad Software, California, USA).
The compounds were evaluated for their ability to disrupt the binding between CCK-2 receptor (CCK-2R) and [^177Lu]Lu-DOTA-CP04 using the methodology described above and compared to comparative example-2 (FIG. 2; Table 5).

| IC50 [2] | SMILES | remaining at 1.5 h (in vitro; tissue homogenate) | metabolism in kidney homogenates (in vitro) | metabolism in liver homogenates (in vitro) | remaining at 1.5 h (in vitro; other tissue homogenate) | LogD7.4 [1] |
| --- | --- | --- | --- | --- | --- | --- |
| – | CCCC[C@@H](C(=O)N[C@@H](CC(=O)O)C(=O)N(C)[C@@H](Cc1cccc2ccccc12)C(N)=O)N(C)C(=O)[C@H](Cc1c[nH]c2ccccc12)NC(=O)CN(C)C(=O)[C@H](Cc1ccc(O)cc1)NC(=O)[C@H](C)NC(=O)[C@@H](CCC(=O)O)NC(=O)[C@@H](CCC(=O)O)NC(=O)[C@@H](CCC(=O)O)NC(=O)[C@@H](C)NC(=O)[C@@H](CCC(=O)O)NC(=O)[C@@H](CCC(=O)O)NC(=O)CN1CCN(CC(=O)O)CCN(CC(=O)O)CCN(CC(=O)O)CC1 [Compound 4] ({DOTA}-[dE][dE][dA][dE][dE][dE]AY[Sar]W[NMeNle]D[NMe1Nal]-NH2) | 100% | – | – | – | – |
| – | CCCC[C@@H](C(=O)N[C@@H](CC(=O)O)C(=O)N[C@@H](Cc1cccc2ccccc12)C(N)=O)N(C)C(=O)[C@H](Cc1c[nH]c2ccccc12)NC(=O)CN(C)C(=O)[C@H](Cc1ccc(O)cc1)NC(=O)[C@H](C)NC(=O)[C@@H](CCC(=O)O)NC(=O)[C@@H](CCC(=O)O)NC(=O)[C@@H](CCC(=O)O)NC(=O)[C@@H](C)NC(=O)[C@@H](CCC(=O)O)NC(=O)[C@@H](CCC(=O)O)NC(=O)CN1CCN(CC(=O)O)CCN(CC(=O)O)CCN(CC(=O)O)CC1 [[^68Ga]Ga-1, metal not drawn] ({DOTA}-[dE][dE][dA][dE][dE][dE]AY[Sar]W[NMeNle]D[1Nal]-NH2) | 85% | significant metabolism | significant metabolism | 75% | −2.88 ± 0.09 |
| – | CCCC[C@@H](C(=O)N[C@@H](CC(=O)O)C(=O)N(C)[C@@H](Cc1ccccc1)C(N)=O)N(C)C(=O)[C@H](Cc1c[nH]c2ccccc12)NC(=O)CN(C)C(=O)[C@H](Cc1ccc(O)cc1)NC(=O)[C@H](C)NC(=O)[C@@H](CCC(=O)O)NC(=O)[C@@H](CCC(=O)O)NC(=O)[C@@H](CCC(=O)O)NC(=O)[C@@H](C)NC(=O)[C@@H](CCC(=O)O)NC(=O)[C@@H](CCC(=O)O)NC(=O)CN1CCN(CC(=O)O)CCN(CC(=O)O)CCN(CC(=O)O)CC1 [[^68Ga]Ga-2, metal not drawn] ({DOTA}-[dE][dE][dA][dE][dE][dE]AY[Sar]W[NMeNle]D[NMeF]-NH2) | – | no observable metabolites detected | no observable metabolites detected | – | −3.56 ± 0.01 |
| – | CCCC[C@@H](C(=O)N[C@@H](CC(=O)O)C(=O)N[C@@H](Cc1ccccc1)C(N)=O)N(C)C(=O)[C@H](Cc1c[nH]c2ccccc12)NC(=O)CN(C)C(=O)[C@H](Cc1ccc(O)cc1)NC(=O)[C@H](C)NC(=O)[C@@H](CCC(=O)O)NC(=O)[C@@H](CCC(=O)O)NC(=O)[C@@H](CCC(=O)O)NC(=O)[C@@H](C)NC(=O)[C@@H](CCC(=O)O)NC(=O)[C@@H](CCC(=O)O)NC(=O)CN1CCN(CC(=O)O)CCN(CC(=O)O)CCN(CC(=O)O)CC1 [[^68Ga]Ga-3, metal not drawn] ({DOTA}-[dE][dE][dA][dE][dE][dE]AY[Sar]W[NMeNle]DF-NH2) | ~35% | significant metabolism | significant metabolism | 20% | −4.06 ± 0.14 |
| 0.042 nM | CCCC[C@@H](C(=O)N[C@@H](CC(=O)O)C(=O)N[C@@H](Cc1ccccc1)C(N)=O)N(C)C(=O)[C@H](Cc1c[nH]c2ccccc12)NC(=O)CN(C)C(=O)[C@H](Cc1ccc(O)cc1)NC(=O)[C@H](C)NC(=O)[C@@H](CCC(=O)O)NC(=O)[C@@H](CCC(=O)O)NC(=O)[C@@H](CCC(=O)O)NC(=O)[C@@H](C)NC(=O)[C@@H](CCC(=O)O)NC(=O)[C@@H](CCC(=O)O)NC(=O)CN1CCN(CC(=O)O)CCN(CC(=O)O)CCN(CC(=O)O)CC1 [^natGa-3, metal not drawn] ({DOTA}-[dE][dE][dA][dE][dE][dE]AY[Sar]W[NMeNle]DF-NH2) | – | – | – | – | – |
| 0.096 nM | CCCC[C@@H](C(=O)N[C@@H](CC(=O)O)C(=O)N(C)[C@@H](Cc1cccc2ccccc12)C(N)=O)N(C)C(=O)[C@H](Cc1c[nH]c2ccccc12)NC(=O)CN(C)C(=O)[C@H](Cc1ccc(O)cc1)NC(=O)[C@H](C)NC(=O)[C@@H](CCC(=O)O)NC(=O)[C@@H](CCC(=O)O)NC(=O)[C@@H](CCC(=O)O)NC(=O)[C@@H](C)NC(=O)[C@@H](CCC(=O)O)NC(=O)[C@@H](CCC(=O)O)NC(=O)CN1CCN(CC(=O)O)CCN(CC(=O)O)CCN(CC(=O)O)CC1 [^natGa-4, metal not drawn] ({DOTA}-[dE][dE][dA][dE][dE][dE]AY[Sar]W[NMeNle]D[NMe1Nal]-NH2) | – | – | – | – | – |
| 0.158 nM | CCCC[C@@H](C(=O)N[C@@H](CC(=O)O)C(=O)N(C)[C@@H](Cc1cccc2ccccc12)C(N)=O)N(C)C(=O)[C@H](Cc1c[nH]c2ccccc12)NC(=O)CN(C)C(=O)[C@H](Cc1ccc(O)cc1)NC(=O)[C@H](C)NC(=O)[C@@H](CCC(=O)O)NC(=O)[C@@H](CCC(=O)O)NC(=O)[C@@H](CCC(=O)O)NC(=O)[C@@H](CCC(=O)O)NC(=O)[C@@H](CCC(=O)O)NC(=O)[C@@H](CCC(=O)O)NC(=O)CN1CCN(CC(=O)O)CCN(CC(=O)O)CCN(CC(=O)O)CC1 [^natGa-Cmp ex-2, metal not drawn, reference compound] ({DOTA}-[dE][dE][dE][dE][dE][dE]AY[Sar]W[NMeNle]D[NMe1Nal]-NH2) | – | – | – | – | – |
